B1: monoclonal antibody ‘F6’ secreted by clone BK6A2F6 (antibody)
heavy: EVQLQQSGPELVKPGASVKISCKASGYSFTGYFMNWVKQSHGKSLEWIGRINPYNGDTFYNQKFKGKATLTVDKSSSTAHMELLSLTSEDSAVYYCGSYYYGDYFDYWGQGTTLTVSSAKTTPPSVYPLAPGSAAQTNSMVTLGCLVKGYFPEPVTVTWNSGSLSSGVHTFPAVLQSDLYTLSSSVTVPSSTWPSETVTCNVAHPASSTKVDKKIVPRDCGCKPCICTVPEVSSVFIFPPKPKDVLTITLTPKVTCVVVDISKDDPEVQFSWFVDDVEVHTAQTQPREEQFNSTFRSVSELPIMHQDWLNGKEFKCRVNSAAFPAPIEKTISKTKGRPKAPQVYTIPPPKEQMAKDKVSLTCMITDFFPEDITVEWQWNGQPAENYKNTQPIMDTDGSYFVYSKLNVQKSNWEAGNTFTCSVLHEGLHNHHTEKSLSHSPGK
light: […]
B2: monoclonal antibody ‘18A2’ derived from hybridoma 18A2 (antibody, V domains shown)
VH: DVQLQESGPGLVKPSQSLSLTCSVTGYSITSGYYWNWIRQFPGNKLEWMGYISYDGSNNYNPSLKNRISITRDTSKNQFFLKLNSVTTEDTATYYCARWEGTTDYWGQGTTLTVSS
VL: not shown
notes: Mouse hybridoma antibody
B3: monoclonal antibody ‘H6’ secreted by clone BK6A2H6 (antibody, V domains shown)
VH: EVQLQQSGPELVKPGASVKISCKASGYSFTGYFMNWVKQSHGKSLEWIGRINPYNGDTFYNQKFKGKATLTVDKSSSTAHMELLSLTSEDSAVYYCGSYYYGDYFDYWGQGTTLTVSS
VL: SIVMTQIPKFLLVSEGDRVTITCKASQSVSNDVAWYQQKSGQSPKLLIYYASNRYTGVPDRFTGSGYGTDFTFTISTVQAEDLAVYFCQQDYSSPLTFGAGTKLELKR

Tests used:
[1] = biological target: T1, virus-like particles (VLPs) of BK polyomavirus VP-1 protein, serotype Ia (BK virus (BKPyV), serotype Ia, UniProt P03088 1-361); experiment: ELISA on coated VLP; supernatant 1/80
T1 construct: self-assembled native VLPs coated on ELISA plates; also called VLP Ia; BKV VP-1, serotype Ia
T1 chain: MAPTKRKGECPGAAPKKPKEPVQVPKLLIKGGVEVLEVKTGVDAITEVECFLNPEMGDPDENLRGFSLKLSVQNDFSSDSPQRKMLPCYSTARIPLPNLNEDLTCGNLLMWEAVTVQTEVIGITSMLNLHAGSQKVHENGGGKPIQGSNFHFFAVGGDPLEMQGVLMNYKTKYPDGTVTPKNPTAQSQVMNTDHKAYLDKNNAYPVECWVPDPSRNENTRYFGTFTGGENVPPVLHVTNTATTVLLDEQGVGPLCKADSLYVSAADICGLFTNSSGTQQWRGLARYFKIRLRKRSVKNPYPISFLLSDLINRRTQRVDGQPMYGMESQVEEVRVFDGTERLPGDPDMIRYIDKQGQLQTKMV
Experimental: (§1) To do this, the VLPs produced were deposited at a concentration of 1 μg/mL in PBS and incubated overnight at +4° C. The wells were then blocked for 1 h at +37° C. with a PBS/FCS (phosphate-buffered saline/fetal calf serum) mixture. After dilution in a dilution buffer containing FCS, PBS and Tween® 20, the various hybridoma culture supernatants were added for 1 h at +37° C. The wells were washed four times in a row with Wash Buffer and a secondary anti-mouse antibody coupled to peroxidase was added to the 1:2000 dilution for 1 h at +37° C. The wells were washed four more times and the substrate (OPD (ortho phenylene diamine)+H₂O₂) was added for 30 min at room temperature. A stop solution (H₂SO₄ 4N) was then added and each well was read by measuring the absorbance at 492 nm with a spectrophotometer. The value obtained for the average of the control wells (PBS in the first step) is subtracted from the optical density values obtained for each well.

[2] = biological target: T2, virus-like particles (VLPs) of BK polyomavirus VP-1 protein, serotype Ib2 (BK virus (BKPyV), serotype Ib2, PA …, UniProt P03088 1-362); experiment: ELISA on coated VLP; supernatant 1/80
T2 construct: native VLPs; also the immunogen; also called VLP Ib2; BK Ib2
T2 chain: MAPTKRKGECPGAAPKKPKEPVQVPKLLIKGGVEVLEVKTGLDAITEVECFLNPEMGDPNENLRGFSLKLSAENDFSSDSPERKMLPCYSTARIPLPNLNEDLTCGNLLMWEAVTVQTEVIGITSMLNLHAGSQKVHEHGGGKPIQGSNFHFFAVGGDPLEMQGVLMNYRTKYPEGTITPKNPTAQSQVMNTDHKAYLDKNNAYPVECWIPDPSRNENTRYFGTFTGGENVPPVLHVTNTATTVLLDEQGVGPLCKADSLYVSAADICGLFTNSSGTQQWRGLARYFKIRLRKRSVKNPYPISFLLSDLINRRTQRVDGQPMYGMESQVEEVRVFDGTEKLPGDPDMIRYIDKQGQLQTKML
Experimental: as §1

[3] = biological target: T3, virus-like particles (VLPs) of BK polyomavirus VP-1 protein, serotype II (BK virus (BKPyV), serotype II, UniProt P14996 1-362); experiment: ELISA on coated VLP; supernatant 1/80
T3 construct: native VLPs; also called VLP II
T3 chain: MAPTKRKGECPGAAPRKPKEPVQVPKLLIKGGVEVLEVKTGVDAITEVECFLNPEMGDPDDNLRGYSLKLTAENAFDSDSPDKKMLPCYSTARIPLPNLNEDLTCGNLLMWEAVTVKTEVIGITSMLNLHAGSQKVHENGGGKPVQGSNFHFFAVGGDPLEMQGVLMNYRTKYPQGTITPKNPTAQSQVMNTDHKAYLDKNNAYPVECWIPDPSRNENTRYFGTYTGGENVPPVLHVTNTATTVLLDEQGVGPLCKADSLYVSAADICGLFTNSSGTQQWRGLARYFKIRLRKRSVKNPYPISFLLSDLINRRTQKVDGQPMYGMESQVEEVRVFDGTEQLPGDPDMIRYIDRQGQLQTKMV
Experimental: as §1

[4] = biological target: T4, virus-like particles (VLPs) of BK polyomavirus VP-1 protein, serotype IV (BK virus (BKPyV), serotype IV, UniProt P14996 1-362); experiment: ELISA on coated VLP; supernatant 1/80
T4 construct: native VLPs; also called VLP IV
T4 chain: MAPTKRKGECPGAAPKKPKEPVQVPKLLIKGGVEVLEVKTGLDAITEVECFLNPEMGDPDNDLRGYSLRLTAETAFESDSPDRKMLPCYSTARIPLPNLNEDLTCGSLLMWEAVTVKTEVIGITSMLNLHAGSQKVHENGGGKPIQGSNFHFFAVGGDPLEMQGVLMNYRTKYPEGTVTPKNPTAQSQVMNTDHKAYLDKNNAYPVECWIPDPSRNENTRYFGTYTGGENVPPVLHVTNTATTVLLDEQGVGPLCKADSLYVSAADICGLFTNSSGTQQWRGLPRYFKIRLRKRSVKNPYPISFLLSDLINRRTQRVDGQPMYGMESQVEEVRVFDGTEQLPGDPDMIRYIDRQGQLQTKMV
Experimental: as §1

[5] = biological target: T1, virus-like particles (VLPs) of BK …; experiment: ELISA on coated VLP; supernatant 1/160
Experimental: as §1

[6] = biological target: T2, virus-like particles (VLPs) of BK …; experiment: ELISA on coated VLP; supernatant 1/160
Experimental: as §1

[7] = biological target: T3, virus-like particles (VLPs) of BK …; experiment: ELISA on coated VLP; supernatant 1/160
Experimental: as §1

[8] = biological target: T4, virus-like particles (VLPs) of BK …; experiment: ELISA on coated VLP; supernatant 1/160
Experimental: as §1

[9] = biological target: T1, virus-like particles (VLPs) of BK …; experiment: ELISA on coated VLP; supernatant 1/20 480
Experimental: as §1

[10] = biological target: T3, virus-like particles (VLPs) of BK …; experiment: ELISA on coated VLP; supernatant 1/20 480
Experimental: as §1

[11] = biological target: T4, virus-like particles (VLPs) of BK …; experiment: ELISA on coated VLP; supernatant 1/20 480
Experimental: as §1

[12] = biological target: T5, denatured VLPs of BK polyomavirus VP-1 protein, serotype IV (BK virus (BKPyV), serotype IV, UniProt P14996 1-362); experiment: ELISA on denatured VLP (carbonate pH 10.6 + DTT; threshold OD>0.5)
T5 construct: also called IV denatured
T5 chain: T4 chain
Experimental: The wells were then blocked for 1 hour at +37° C. with a PBS/SVF mixture. After dilution in a dilution buffer containing SVF, PBS and Tween® 20, the individual culture supernatants or purified antibodies were added for 1 hour at +37° C. The wells were washed four times in a row with Wash Buffer and a secondary anti-mouse peroxidase antibody was added to the 1/2000 dilution for 1 hour at +37° C. The wells were washed again four times in a row and the substrate was added for 30 minutes at room temperature. A stop solution was added and then each well was read by measuring the absorbance at 492 nm with a spectrophotometer. The value obtained for the average of the control wells (PBS in the first step) was subtracted from the optical density values obtained for each well (detection threshold: OD>0.5).

Binder | OD 492 nm [1] [OD] | OD 492 nm [2] [OD] | OD 492 nm [3] [OD] | OD 492 nm [4] [OD] | OD 492 nm [5] [OD] | OD 492 nm [6] [OD] | OD 492 nm [7] [OD] | OD 492 nm [8] [OD] | OD 492 nm [9] [OD] | OD 492 nm [10] [OD] | OD 492 nm [11] [OD] | OD 492 nm [12] [OD]
B1 | 3.26 | 0.59 | 0.44 | 3.11 | 3.21 | 0.4 | 0.27 | 3.46 | 0.27 | 0.1 | 0.26 | 
B2 |  |  |  |  |  |  |  |  |  |  |  | 0.709
B3 | 3.13 | 0.49 | 0.22 | 3.14 | 3.06 | 0.4 | 0.14 | 3.14 | 0.16 | 0.06 | 0.12 | 
